Results reported in patent US20240043522A1.

Assays:
[1] = target: His-tagged recombinant human FcγRIIIa/CD16a (V158) (human) (UniProt P08637); experiment: SPR (Biacore T200), His-tagged FcγR captured by anti-His, antibody as analyte, 1:1 kinetic model
[2] = target: His-tagged recombinant mouse FcγR4/CD16-2 (mouse); experiment: as above
[3] = target: His-tagged recombinant human FcγRI/CD64 (human) (UniProt P12314); experiment: as above
[4] = target: biotinylated human FcRn protein (human) (UniProt P55899); experiment: SPR (Biacore T200), biotinylated hFcRn captured on CAP chip, antibody as analyte
[5] = target: His-tagged recombinant human FcγRIIa/CD32a (R167) (human) (UniProt P12318); experiment: SPR (Biacore T200), His-tagged FcγR captured by anti-His, antibody as analyte, 1:1 kinetic model
[6] = target: His-tagged recombinant human FcγRIIb/c/CD32b/c (human) (UniProt P31994); experiment: as above
Sequence of His-tagged recombinant human FcγRIIb/c/CD32b/c (human) (P31994 46-217 limits assumed): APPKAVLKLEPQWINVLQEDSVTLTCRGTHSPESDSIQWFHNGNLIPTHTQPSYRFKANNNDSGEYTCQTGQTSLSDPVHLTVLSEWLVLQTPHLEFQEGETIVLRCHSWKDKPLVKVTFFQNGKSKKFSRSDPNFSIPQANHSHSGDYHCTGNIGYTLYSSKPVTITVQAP

Sequence of His-tagged recombinant human FcγRIIIa/CD16a (V158) (human) (P08637 17-208 F176V limits assumed): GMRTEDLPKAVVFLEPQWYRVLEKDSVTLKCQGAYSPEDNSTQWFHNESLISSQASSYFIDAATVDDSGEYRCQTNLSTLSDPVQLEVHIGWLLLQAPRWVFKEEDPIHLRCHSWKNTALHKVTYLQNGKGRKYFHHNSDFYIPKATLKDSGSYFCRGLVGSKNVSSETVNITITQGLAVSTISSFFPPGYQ
Sequence of His-tagged recombinant human FcγRI/CD64 (human) (P12314 16-288 limits assumed): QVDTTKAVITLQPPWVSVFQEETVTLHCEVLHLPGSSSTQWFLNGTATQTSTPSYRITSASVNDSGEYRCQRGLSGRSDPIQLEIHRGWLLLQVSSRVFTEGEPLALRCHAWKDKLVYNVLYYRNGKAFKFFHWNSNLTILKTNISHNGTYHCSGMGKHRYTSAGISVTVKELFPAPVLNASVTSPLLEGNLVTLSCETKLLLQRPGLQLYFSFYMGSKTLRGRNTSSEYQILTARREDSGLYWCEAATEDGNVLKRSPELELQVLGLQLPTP
Sequence of His-tagged recombinant human FcγRIIa/CD32a (R167) (human) (P12318 36-218 H167R limits assumed): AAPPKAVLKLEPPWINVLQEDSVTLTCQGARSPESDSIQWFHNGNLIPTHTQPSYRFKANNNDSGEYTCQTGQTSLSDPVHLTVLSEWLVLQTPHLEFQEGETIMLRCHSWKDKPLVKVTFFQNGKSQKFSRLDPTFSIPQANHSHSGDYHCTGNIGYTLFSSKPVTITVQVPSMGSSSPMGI

Kd [1] | Kd [2] | Kd [3] | Kd [4] | Kd [5] | Kd [6] | Substance
> 10000 nM | > 5000 nM | 6.7 nM | 357 nM |  |  | mab04 (adalimumab Fab, IgG1 E269R, K322A) (antibody)
 |  |  | 263 nM |  |  | mab02 (adalimumab Fab, IgG1 L234A/L235A N297A, aglycosylated) (antibody)
656 nM | 827 nM | 0.8 nM | 361 nM | 3280 nM | > 10000 nM | mab01 (adalimumab, IgG1 wild-type) (antibody)
 |  |  | 528 nM |  |  | mab06 (adalimumab Fab, upside-down IgG1 Fc, no linker between CH1 and CH2) (antibody)
 |  |  | 348 nM |  |  | mab07 (adalimumab Fab, upside-down IgG1 Fc with 19GS-linker between CH1 and CH2) (antibody)
 |  | > 10000 nM | 265 nM |  |  | mab05 (adalimumab Fab, IgG1 L234A/L235A P329A) (antibody)
> 10000 nM | > 10000 nM |  | 342 nM | > 5000 nM | > 10000 nM | mab03 (adalimumab Fab, IgG2 Fc-backbone) (antibody)
